Data from doi:10.1101/557132.

Tests used:
[1] = molecular target: human SNAP_GLP1R on CHO-K1 cells (human) (UniProt P43220)
[2] = molecular target: SNAP_GLP1R on YFP-AD293 cells (human) (UniProt P43220)
[3] = molecular target: SNAP_GLP1R on YFP-AD293 cells (human) (UniProt P43220); assay: fluorescent ligand labelling of cells

Sequence of human SNAP_GLP1R on CHO-K1 cells (human) (P43220 24-463): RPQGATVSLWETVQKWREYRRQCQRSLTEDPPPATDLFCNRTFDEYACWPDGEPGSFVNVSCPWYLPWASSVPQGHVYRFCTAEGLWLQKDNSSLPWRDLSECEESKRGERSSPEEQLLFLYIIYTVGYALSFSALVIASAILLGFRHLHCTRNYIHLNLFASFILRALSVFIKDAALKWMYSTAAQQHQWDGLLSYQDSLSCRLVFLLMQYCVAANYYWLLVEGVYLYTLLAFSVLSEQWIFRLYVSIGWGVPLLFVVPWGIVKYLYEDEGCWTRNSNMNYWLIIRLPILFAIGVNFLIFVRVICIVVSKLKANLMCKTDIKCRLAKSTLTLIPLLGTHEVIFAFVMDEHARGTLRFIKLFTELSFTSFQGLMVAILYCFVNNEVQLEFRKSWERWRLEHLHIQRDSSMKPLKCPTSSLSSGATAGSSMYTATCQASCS
Sequence of SNAP_GLP1R on YFP-AD293 cells (human) (P43220 24-463): as above

| Substance | block of GLP-1-induced cAMP production through GLP1R (cAMP-Glo) [1] [nM] | cAMP production (cAMP-Glo) [2] [nM] | cAMP production (cAMP-Glo) with the positive allosteric modulator BETP [2] [nM] | cAMP production (cAMP-Glo) with the positive allosteric modulator BETP [1] [nM] | concentration at maximum labeling [3] [nM] |
| --- | --- | --- | --- | --- | --- |
| Exendin4(9-39) (peptide) | 38.4 |  |  |  |  |
| LUXendin555 (peptide) |  | 130 | 28.4 |  |  |
| LUXendin645 (peptide) | 73.1 |  |  | 9.3 | 100 |
| S39C-Exendin4(9-39) (peptide) | 34.8 |  |  |  |  |
